We go through two molecules from PMC7948816 (2021).

Assay [1] concerns the target T1, alpha-tropomyosin (Oryctolagus cuniculus, UniProt P58772). Put plainly: ITC. Background: ITC needs no label: the signal is the heat of the interaction.
The target of assay [2] is T1, alpha-tropomyosin. The assay is described as follows: fluorescence titration.

T1 sequence (P58772 whole entry): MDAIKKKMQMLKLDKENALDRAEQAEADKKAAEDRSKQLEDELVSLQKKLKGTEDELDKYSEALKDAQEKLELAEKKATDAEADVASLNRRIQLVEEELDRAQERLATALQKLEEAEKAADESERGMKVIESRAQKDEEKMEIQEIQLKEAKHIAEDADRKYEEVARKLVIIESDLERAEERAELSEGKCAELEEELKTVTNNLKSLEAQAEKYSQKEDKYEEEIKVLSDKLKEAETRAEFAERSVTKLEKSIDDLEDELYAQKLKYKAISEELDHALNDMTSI

One may read the Kd as a measure of binding affinity in units of concentration. For the molecule ENREVGDWRKNIDALSGMEGRKKKFES [cardiac troponin I C-terminal peptide HcTnI-C27 184-210], the Kd was determined as 11 µM with alpha-tropomyosin [1] and 8 µM with alpha-tropomyosin [2].
As for ENREVGDWHKNIDALSGMEGRKKKFES [cardiac troponin I C-terminal peptide HcTnI-C27-H 184-210], the Kd with alpha-tropomyosin [2] is 15 µM.
